Data: patent US20240383993A1 (LANOVA MEDICINES, published 2024)
Where a chain is given by its changes, count along the chain named. Names may count otherwise. One block for each binder: values may come before it.

What was measured:
[1] = molecular target: T1, human 4-1BB expressed on cells (human, UniProt Q07011 24-255); assay: flow cytometry competition with biotinylated human 4-1BB ligand on CHO-K1/human 4-1BB cells
T1 construct: whole, on cells; also called CHO-K1/hu4-1BB; cell surface human 4-1BB
T1 sequence (Q07011 24-255): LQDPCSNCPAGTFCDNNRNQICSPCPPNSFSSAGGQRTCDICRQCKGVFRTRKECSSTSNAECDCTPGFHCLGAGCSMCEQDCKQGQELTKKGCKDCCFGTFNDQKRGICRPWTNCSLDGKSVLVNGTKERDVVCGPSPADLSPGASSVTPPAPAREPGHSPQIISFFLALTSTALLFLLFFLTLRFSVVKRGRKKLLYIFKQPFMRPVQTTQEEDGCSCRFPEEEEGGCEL
Experimental: CHO-K1 cells overexpressing human 4-1BB were incubated with biotinylated human 4-1BB ligand (0.3 μg/ml) in the presence of serial diluted anti-41BB nanobodies for 1 h at 4° C. with Ref mAb as the reference antibody. Then, cells were incubated with Alexa Fluor 633-conjugated streptavidin. Binding was measured with an Agilent flow cytometer. As shown in FIG. 2 and Table 3, all of the tested nanobodies could block 4-1BB ligand binding to 4-1BB in a concentration-dependent manner while Ref mAb had no such effect.

[2] = molecular target: T1, human 4-1BB expressed on cells; assay: cell-based or functional assay
[3] = molecular target: T2, His-tagged human 4-1BB protein (human, UniProt Q07011 24-186); assay: ELISA, coated His-tagged 4-1BB, anti-human IgG-HRP
T2 construct: Coated on ELISA plates at 2 µg/ml; also called hu4-1BB; soluble human 4-1BB; not shown: His tag
Experimental: (§1) His-tagged 4-1BB was coated at 2 μg/ml overnight and then blocked by 2% BSA in PBS. Serially diluted anti-4-1BB nanobodies were incubated with the coated antigen for 1h at room temperature with a reference antibody “Ref mAb”. The resulting plates were washed with PBS/T and incubated with goat anti-human IgG-HRP for 1 h at room temperature. The plates were developed with TMB substrate and analyzed by spectrophotometer at OD 450 nm.

[4] = molecular target: T3, His-tagged cynomolgus 4-1BB protein (cynomolgus, UniProt A9YYE7 24-186); assay: ELISA, coated His-tagged 4-1BB, anti-human IgG-HRP
T3 construct: Coated on ELISA plates at 2 µg/ml; also called Cyno 4-1BB; soluble cynomolgus 4-1BB; not shown: His tag
T3 sequence: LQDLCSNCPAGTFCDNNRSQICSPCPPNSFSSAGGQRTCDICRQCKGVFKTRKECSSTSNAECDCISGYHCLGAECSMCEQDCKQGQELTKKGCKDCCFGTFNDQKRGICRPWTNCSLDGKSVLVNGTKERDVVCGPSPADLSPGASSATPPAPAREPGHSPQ
Experimental: as §1

- IC50 [1]: 1.88 nM
- EC50 (nM) in Jurkat-41BB NFκB reporter assay [2]: 0.008 nM
- EC50 [3]: 9.12 nM
- EC50 [4]: 26.5 nM
B1: VV02-1LP-238 (Fc fusion, not shown: a dimerising Fc or GST; small tags and cut ends)
VHH: QVQLVESGGGLVQAGGALRLSCAASGFTLDYSAIGWFRQAPGKEREGVLCISSSGDVTIYADSVKGRFTISRDNAKNTVYLQMNSLKPEDTAVYYCVAPRICSTYSSDDYWGQGTQVTVSS
notes: Llama nanobody tested as fusion with human IgG1 Fc (N297A)

- IC50 [1]: 1.48 nM
- EC50 (nM) in Jurkat-41BB NFκB reporter assay [2]: 0.013 nM
- EC50 [3]: 0.37 nM
- EC50 [4]: 6.94 nM
B2: VV02-1LP-422 (Fc fusion, not shown: a dimerising Fc or GST; small tags and cut ends)
VHH: B1 VHH with V2L, A14P, A17S, D30A, Y31D, S32Y
notes: as for B1

- IC50 [1]: 0.387 nM
- EC50 (nM) in Jurkat-41BB NFκB reporter assay [2]: 0.002 nM
- EC50 [3]: > 30 nM
- EC50 [4]: 0.06 nM
B3: VV02-1SP (1)-168 (Fc fusion, not shown: a dimerising Fc or GST; small tags and cut ends)
VHH: QVQLVESGGGLVQPGGSLRLSCAASGFTFSSYAMSWARQAPGKDFEWVSYIYSDGNTYYADSVKGRFTISRDNAKNTVYLQMNSLKPEDTAVYYCATWHTLRVGVWDEYDYWGQGTQVTVSS
notes: as for B1

- IC50 [1]: 0.566 nM
- EC50 (nM) in Jurkat-41BB NFκB reporter assay [2]: 0.017 nM
- EC50 [3]: > 30 nM
- EC50 [4]: 0.04 nM
B4: VV02-1LP-263 (Fc fusion)
VHH: EVQLVESGGGLVQPGGSLRLSCAASGFTFSSSAMSWARQTPGKGFEWVSGIYSDGSTYYTDSVKDRFTISRDNAKNTVYLQMNSLKPEDTAVYYCATWGTLRFGVWAEYDHWGQGTQVTVSS
notes: Llama nanobody tested as fusion with human IgG1 Fc (N297A); not shown: Human IgG1 Fc fragment with N297A, fused at the C-terminus of the VHH
